Measured values as given in patent US6127169.

Target: specific cell surface receptors on mouse embryo fibroblasts

growth inhibition of synchronous mouse embryo fibroblasts (cell count): 100%
B1: mouse β-galactoside binding protein (GBP), natural or recombinant, complexed or non-complexed form not told (ligand)
chain: ACGLVASNLNLKPGECLKVRGEVASDAKSFVLNLGKDSNNLCLHFNPRFNAHGDANTIVCNTKEDGTWGTEHREPAFPFQPGSITEVCITFDQADLTIKLPDGHEFKFPNRLNMEAINYMAADGDFKIKCVAFE
modifications: 125I label in the receptor binding assays
